Test system: microtubules

HsKip3d M1-S357 protein
Km for microtubule stimulation (coupled PK/LDH microtubule-stimulated ATPase assay, Michaelis-Menten fit): a Km for microtubule stimulation of 0.2 µM

Source: US20040023255
